The record followed here is PMC11996680, “KIF1C activates and extends dynein movement through the FHF cargo adapter” (Nature Structural & Molecular Biology, 2025).

The chains are these.
T1: C-terminal HOOK3 (residues 451–718) (human, UniProt Q86VS8 451-718)
T1 construct: also called H^C; source: Sf9, co-expressed with FTS and FHIP1B, purified (Strep-Tactin, PreScission, SEC); not shown: Strep II, N-terminal, cleaved
T1 sequence (looked up): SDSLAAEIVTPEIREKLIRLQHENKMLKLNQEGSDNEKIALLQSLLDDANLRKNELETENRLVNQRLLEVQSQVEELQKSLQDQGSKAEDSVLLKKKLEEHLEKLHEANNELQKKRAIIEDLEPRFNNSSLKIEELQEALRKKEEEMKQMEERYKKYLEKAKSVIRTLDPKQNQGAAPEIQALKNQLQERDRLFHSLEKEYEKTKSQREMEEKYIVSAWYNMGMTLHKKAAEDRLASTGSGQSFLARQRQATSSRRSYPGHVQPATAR

T2: full-length HOOK3 (of FHF co-expression) (human, UniProt Q86VS8 1-718)
T2 construct: HOOK3, human, full length; gene codon optimized for Sf9; Captured on Strep-Tactin by the tag, then released with PreScission protease before gel filtration; source: Sf9, co-expressed with FTS and FHIP1B or FHIP2A, purified (Strep-Tactin, PreScission, SEC); not shown: Strep II, N-terminal, cleaved
T2 sequence (looked up): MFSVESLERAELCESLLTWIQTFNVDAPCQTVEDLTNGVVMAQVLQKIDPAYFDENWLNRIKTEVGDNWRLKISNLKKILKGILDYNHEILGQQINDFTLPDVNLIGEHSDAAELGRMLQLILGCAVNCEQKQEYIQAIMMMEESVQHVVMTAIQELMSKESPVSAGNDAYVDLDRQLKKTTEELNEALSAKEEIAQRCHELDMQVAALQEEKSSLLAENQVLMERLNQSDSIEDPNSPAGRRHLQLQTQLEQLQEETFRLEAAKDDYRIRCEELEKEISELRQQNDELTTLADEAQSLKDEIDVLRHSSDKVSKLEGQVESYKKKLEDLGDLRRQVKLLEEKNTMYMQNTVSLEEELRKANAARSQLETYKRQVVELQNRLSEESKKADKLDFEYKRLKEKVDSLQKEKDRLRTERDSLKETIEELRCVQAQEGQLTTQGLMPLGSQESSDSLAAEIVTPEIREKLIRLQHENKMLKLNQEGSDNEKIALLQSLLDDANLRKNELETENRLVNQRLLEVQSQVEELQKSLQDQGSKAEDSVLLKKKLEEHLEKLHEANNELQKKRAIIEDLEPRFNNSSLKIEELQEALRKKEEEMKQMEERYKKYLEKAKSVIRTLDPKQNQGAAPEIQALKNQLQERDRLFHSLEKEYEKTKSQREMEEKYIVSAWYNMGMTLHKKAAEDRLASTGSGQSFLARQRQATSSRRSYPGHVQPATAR

T3: KIF1C–GFP (full-length KIF1C fused to a C-terminal eGFP) (human, UniProt O43896 1-1103)
T3 construct: kinesin-3 KIF1C, human, full length (residues up to 1103 are named); also called KFL; KFL–GFP; not shown: eGFP, C-terminal, kept
T3 sequence (looked up): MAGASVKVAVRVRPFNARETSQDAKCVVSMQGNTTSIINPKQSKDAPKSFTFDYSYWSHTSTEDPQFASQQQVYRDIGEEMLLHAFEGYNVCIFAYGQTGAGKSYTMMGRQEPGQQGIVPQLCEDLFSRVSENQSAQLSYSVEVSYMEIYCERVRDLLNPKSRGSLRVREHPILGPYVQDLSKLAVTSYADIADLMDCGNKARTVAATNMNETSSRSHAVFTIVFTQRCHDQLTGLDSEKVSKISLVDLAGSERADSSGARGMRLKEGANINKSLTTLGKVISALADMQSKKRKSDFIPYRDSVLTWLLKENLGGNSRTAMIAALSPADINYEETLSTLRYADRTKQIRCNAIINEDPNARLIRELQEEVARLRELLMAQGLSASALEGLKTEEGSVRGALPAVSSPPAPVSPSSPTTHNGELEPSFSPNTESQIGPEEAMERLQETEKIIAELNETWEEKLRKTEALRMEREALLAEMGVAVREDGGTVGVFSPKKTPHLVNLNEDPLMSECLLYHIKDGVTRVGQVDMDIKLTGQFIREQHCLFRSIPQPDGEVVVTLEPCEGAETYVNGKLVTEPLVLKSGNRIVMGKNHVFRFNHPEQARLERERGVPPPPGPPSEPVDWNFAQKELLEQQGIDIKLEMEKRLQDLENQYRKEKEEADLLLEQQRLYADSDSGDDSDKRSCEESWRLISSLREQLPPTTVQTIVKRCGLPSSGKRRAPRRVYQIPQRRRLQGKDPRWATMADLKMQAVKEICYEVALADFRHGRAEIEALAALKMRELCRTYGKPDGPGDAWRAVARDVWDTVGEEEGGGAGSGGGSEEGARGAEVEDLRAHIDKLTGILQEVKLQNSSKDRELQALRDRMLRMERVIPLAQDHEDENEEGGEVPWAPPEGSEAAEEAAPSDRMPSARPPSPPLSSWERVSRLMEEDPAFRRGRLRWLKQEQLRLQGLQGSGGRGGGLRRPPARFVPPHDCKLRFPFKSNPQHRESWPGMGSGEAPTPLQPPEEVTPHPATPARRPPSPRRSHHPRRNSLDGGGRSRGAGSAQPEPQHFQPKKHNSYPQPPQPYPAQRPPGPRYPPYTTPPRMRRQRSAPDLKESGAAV

B1: GST-KIF1C stalk 674-922 (domain or fragment, human, UniProt O43896 674-922, looked up)
chain: SDSGDDSDKRSCEESWRLISSLREQLPPTTVQTIVKRCGLPSSGKRRAPRRVYQIPQRRRLQGKDPRWATMADLKMQAVKEICYEVALADFRHGRAEIEALAALKMRELCRTYGKPDGPGDAWRAVARDVWDTVGEEEGGGAGSGGGSEEGARGAEVEDLRAHIDKLTGILQEVKLQNSSKDRELQALRDRMLRMERVIPLAQDHEDENEEGGEVPWAPPEGSEAAEEAAPSDRMPSARPPSPPLSSWE
notes: KIF1C, human, residues 674-922; Based on the original GST–KIF1C stalk plasmid; also called KIF1CS^2; KIF1CS^674–922; source: E. coli SoluBL21, purified (Ni-NTA, SEC); not shown: GST, N-terminal, kept
B2: HOOK3-SNAPf labeled with Alexa-647 (natural protein, human, UniProt Q86VS8 1-718, looked up)
chain: T2 sequence (looked up)
modifications: Alexa-647 on the SNAP tag
notes: HOOK3, human, amplified from a human cDNA library from the start codon to the last codon; also called HOOK3-Alexa 647; source: Sf9, purified (Ni-NTA, IgG Sepharose, cut off the beads with TEV protease); not shown: 8xHis, N-terminal, cleaved; ZZ, N-terminal, cleaved; SNAPf, C-terminal, kept
B3: GST–KIF1C stalk (residues 642–922) (domain or fragment, human, UniProt O43896 642-922, looked up)
chain: EMEKRLQDLENQYRKEKEEADLLLEQQRLYADSDSGDDSDKRSCEESWRLISSLREQLPPTTVQTIVKRCGLPSSGKRRAPRRVYQIPQRRRLQGKDPRWATMADLKMQAVKEICYEVALADFRHGRAEIEALAALKMRELCRTYGKPDGPGDAWRAVARDVWDTVGEEEGGGAGSGGGSEEGARGAEVEDLRAHIDKLTGILQEVKLQNSSKDRELQALRDRMLRMERVIPLAQDHEDENEEGGEVPWAPPEGSEAAEEAAPSDRMPSARPPSPPLSSWE
notes: KIF1C, human, amino acids 642-922 (CC2, stalk globular domain, CC3); A tandem TEV site lies between GST and KIF1C; also called KS; GST-tagged KIF1C stalk; source: E. coli SoluBL21, purified (Ni-NTA, SEC); not shown: GST, N-terminal, kept
B4: C-terminal HOOK3 fragment (residues 571–718) (domain or fragment, human, UniProt Q86VS8 571-718, looked up)
chain: DLEPRFNNSSLKIEELQEALRKKEEEMKQMEERYKKYLEKAKSVIRTLDPKQNQGAAPEIQALKNQLQERDRLFHSLEKEYEKTKSQREMEEKYIVSAWYNMGMTLHKKAAEDRLASTGSGQSFLARQRQATSSRRSYPGHVQPATAR
notes: gene codon optimized for Sf9; Captured on Strep-Tactin by the tag, then released with PreScission protease before gel filtration; Two copies form the coiled coil in the structure; source: Sf9, co-expressed with FTS and FHIP1B or FHIP2A, purified (Strep-Tactin, PreScission, SEC); not shown: Strep II, N-terminal, cleaved

The target of data set [1] is T1, C-terminal HOOK3 (residues 451–718). The data set can be described thus: cryo-EM structure; FH^451–718F with GST-KIF1C stalk 674–922; 4.8 Å, low resolution at the KIF1C stalk density; no atomic model. To be noted: both partners purified.
In data set [2] the target is T2, full-length HOOK3 (of FHF co-expression). The data set can be described thus: cross-linking; cross-linking mass spectrometry; 10 mM EDC or 5 mM DSSO, room temperature, 60 min; full-length FHF or FH^571-718F with KIF1C stalk 674-922. To be noted: both partners purified.
Data set [3] concerns the target T3, KIF1C–GFP (full-length KIF1C fused to a …). Put plainly: single-molecule TIRF microscopy, co-movement on microtubules; 200 nM TMR–dynein, 200 nM dynactin, 1,600 nM labeled adapter and 180 nM KIF1C-GFP mixed at ~75 mM KCl, on ice 45–60 min, diluted 1:20 or 1:40; biotin-microtubules held on the coverslip; 25 °C. To be noted: both partners purified.
Data set [4] has as its target T4, full-length FTS–HOOK3–FHIP1B complex (human, UniProt Q86VS8 1-718; Q9H8T0 1-292; Q8N612 1-972).
T4 construct: HOOK3, human, full length; FTS, human, full length; FHIP1B, human, full length; SEC-MALS gave ~304 kDa for the full-length complex; also called FHF; full-length FHF; source: Sf9, co-expressed, purified (Strep-Tactin, PreScission, SEC); not shown: Strep II, N-terminal, cleaved; copies: 2 + +
Put plainly: mass photometry; full-length FHF with KIF1C stalk, 100 nM in GF150, Refeyn TwoMP. The conditions noted are these: both partners purified.

Data set [5] concerns the molecule itself. The data set can be described thus: cryo-EM structure; FTS, FHIP1B and HOOK3 571–718, co-expressed in Sf9 and purified as one complex; 3.2 Å; 0.9 mg/ml with 0.1% CHAPSO or 0.005% Igepal.
The target in the data set “GST-KIF1C stalk 674-922” is B1. The data set can be described thus: cross-linking; cross-linking mass spectrometry; 10 mM EDC or 5 mM DSSO, room temperature, 60 min; full-length FHF or FH^571-718F with KIF1C stalk 674-922. The conditions noted are these: both partners purified.

T4 sequence (Q9H8T0 whole entry, chain 2 of 2): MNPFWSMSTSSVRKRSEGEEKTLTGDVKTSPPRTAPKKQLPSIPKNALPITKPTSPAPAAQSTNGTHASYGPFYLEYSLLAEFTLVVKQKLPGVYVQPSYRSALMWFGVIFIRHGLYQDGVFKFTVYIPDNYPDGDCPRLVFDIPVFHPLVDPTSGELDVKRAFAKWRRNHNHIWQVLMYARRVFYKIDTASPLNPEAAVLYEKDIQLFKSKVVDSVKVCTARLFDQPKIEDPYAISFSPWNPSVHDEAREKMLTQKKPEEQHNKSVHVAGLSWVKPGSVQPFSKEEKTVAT
T4 sequence (Q8N612 whole entry, chain 3 of 2): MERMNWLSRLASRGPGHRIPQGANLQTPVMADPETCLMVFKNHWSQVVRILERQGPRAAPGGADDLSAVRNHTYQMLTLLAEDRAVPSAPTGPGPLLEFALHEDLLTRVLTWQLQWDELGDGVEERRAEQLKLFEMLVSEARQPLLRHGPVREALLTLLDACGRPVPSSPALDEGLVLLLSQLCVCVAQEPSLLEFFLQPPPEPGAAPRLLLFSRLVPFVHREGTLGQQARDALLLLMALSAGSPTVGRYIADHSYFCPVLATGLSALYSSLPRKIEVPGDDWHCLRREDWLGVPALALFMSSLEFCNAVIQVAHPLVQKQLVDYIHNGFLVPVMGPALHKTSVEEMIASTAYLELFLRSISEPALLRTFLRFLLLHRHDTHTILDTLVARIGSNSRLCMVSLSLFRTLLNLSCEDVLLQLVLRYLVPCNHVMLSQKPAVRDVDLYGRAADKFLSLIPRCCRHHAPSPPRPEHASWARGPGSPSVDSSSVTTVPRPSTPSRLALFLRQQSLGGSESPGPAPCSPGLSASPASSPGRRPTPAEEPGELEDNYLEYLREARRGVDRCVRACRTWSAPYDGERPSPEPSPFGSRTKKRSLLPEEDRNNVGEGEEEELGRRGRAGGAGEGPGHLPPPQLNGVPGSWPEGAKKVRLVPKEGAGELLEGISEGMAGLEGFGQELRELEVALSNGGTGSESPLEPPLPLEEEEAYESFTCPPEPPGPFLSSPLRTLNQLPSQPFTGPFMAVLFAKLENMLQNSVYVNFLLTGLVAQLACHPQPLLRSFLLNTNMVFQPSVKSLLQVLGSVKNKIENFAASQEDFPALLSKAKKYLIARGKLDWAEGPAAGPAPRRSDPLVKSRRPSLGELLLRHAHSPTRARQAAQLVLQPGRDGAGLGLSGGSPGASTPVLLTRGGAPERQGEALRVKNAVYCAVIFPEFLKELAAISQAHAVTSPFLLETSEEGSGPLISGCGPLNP

For the molecule B1, the binding result in data set [1] and in data set [2] was “binds” in each case. As to B2, the binding result in data set [3] is given as “binds”. On to B3, for which the “stoichiometry N” value in data set [4] was 1 dimeric KIF1C stalk per FHF. With B4, the binding result (in data set [5]; with GST-KIF1C stalk 674-922) was “binds” throughout.
